Reference: patent US20250382354A1

Columns and labels:
Assay in all cases: peptide ELISA
[1] = biological target: OC43 FP peptide (OC43), P36334
[2] = biological target: SARS-CoV FP peptide (SARS-CoV), P59594
[3] = biological target: MERS FP peptide (MERS), K9N5Q8
[4] = biological target: Hu_PDCoV FP peptide (Hu_PDCoV)
HKU1 FP peptide (HKU1) = biological target: HKU1 FP peptide (HKU1)
[5] = biological target: SARS-CoV-2 FP peptide (SARS-CoV-2)
[6] = biological target: NL63 FP peptide (NL63), Q6Q1S2
229E FP peptide (229E) = biological target: 229E FP peptide (229E)
[7] = biological target: FCoV-KU2 FP peptide (FCoV-KU2)
MHV HR2 peptide (MHV) = biological target: MHV HR2 peptide (MHV)
[8] = biological target: HKU5 HR2 peptide (HKU5), A3EXD0
[9] = biological target: SARS-CoV-2 HR2 peptide (SARS-CoV-2), P0DTC2
[10] = biological target: HKU9 HR2 peptide (HKU9), A3EXG6

| Binder | EC50 [1] [µg/mL] | EC50 [2] [µg/mL] | EC50 [3] [µg/mL] | EC50 [4] [µg/mL] | EC50 (HKU1 FP peptide (HKU1)) [µg/mL] | EC50 [5] [µg/mL] | EC50 [6] [µg/mL] | EC50 (229E FP peptide (229E)) [µg/mL] | EC50 [7] [µg/mL] | EC50 (MHV HR2 peptide (MHV)) [µg/mL] | EC50 [8] [µg/mL] | EC50 [9] [µg/mL] | EC50 [10] [µg/mL] |
| --- | --- | --- | --- | --- | --- | --- | --- | --- | --- | --- | --- | --- | --- |
| fp.002 (antibody, V domains shown) VH: VQLVESGGGVVQPGTSLRLSCAGSGFNFDNYAIHWVRQAPGQGLEWVAIISYEARNKKYAGSVTGRFSISRDNSKSMVYLQMDSLRGEDTAVYYCARDLFLSDYDRSGYDPTRGGFDLWGQGTLVTVSS VL: EIVMTQSPATLSVSPGERATLSCRASQSVSSSLAWYQHKLGQAPRLLIYGASTRATGIPGRFSGSGSGTEFTLTISSLQSEDVAIYYCQQYGDWPLVTFGGGTKVEIK | 0.0211 | 0.0285 | 0.0358 | 0.0215 | 0.0256 | 0.032 | 0.0245 | 0.0176 |  |  |  |  |  |
| fp.006 (antibody, V domains shown) VH: VQLVESGGGVVQPGGSLRLSCAASGFNFNNYALHWVRQAPGKGLEWVAIISYEARNKKYGVSVMGRFSISRDNSKSIMYLEMNSLRVEDTGVYYCARDLFLSDYDRSGYDPTRGGFDHWGQGTLVTVSS VL: EIVMTQSPATLSVSPGERATLSCRASQSVSSSLAWYQHRFGQAPRLLISGASTRATGIPGRFSGSGSGTEFTLTISSLQSEDVAVYYCQQYGDWPLVTFGGGTKVEIK | 0.0134 | 0.0157 | 0.0228 |  | 0.0168 | 0.0331 | 0.0144 | 0.0121 | 0.0149 |  |  |  |  |
| fp.003 (antibody, V domains shown) VH: VQLVESGGGVVQPGTSLRLSCTASGFSFSNYAMHWVRQAPGKGLEWVAIISFDTRNKEFADSVKGRFSISRDNSKNSLNLQMNSLRPEDTGVYYCARDLFLSDYDSRGYEPSRGGFDYWGQGTLVTVSS VL: EIVMTQSPATLSVSPGERATLSCRASQSVSSSLAWYQQKLGQPPRLLIYGASTRATGIPARFSGSGSGTEFTLTISSLKSEDSAVYYCQQYNDWPLLSFGGGTKVEIK | 0.0149 | 0.0285 | 0.0349 |  | 0.0238 | 0.0369 | 0.0249 | 0.0201 | 0.0295 |  |  |  |  |
| fp.005 (antibody, V domains shown) VH: VQLVESGGGVVQPGNSLRLSCAASGFRFNNYAMHWVRQAPGKGLEWVAIISYEARNEKYADSVKGRFSISRDNAKNTLYLQMNSLRADDTGVYYCARDLFLSDYDTSGYDRTRGGFDYWGQGALVTVSS VL: EIVMTQSPATLSVSPGERATLSCRASQSVSNGLAWYQHRFGQPPRLLIYGASTRATGIPTRFSGSGSGTEFTLTISSLQSEDFAVYYCQQYDDWPLITFGGGTKVEIK | 0.0244 |  | 0.04 |  |  | 0.0295 | 0.0231 | 0.0175 | 0.028 |  |  |  |  |
| CV3-25 (antibody) chain 1: QVQLVESGAEVKKPGESLKISCKGSGYTFTRYWIGWVRQMPGKGLEWMGIIYPGDSDTRYSPSFQGHVTISADKSISTAYLQWNSLKASDTAMYYCARLPQYCSNGVCQRWFDPWGQGTLVTVSS chain 2: EIVLTQSPSSVSASVGDRVTITCRASQGISSWLAWYQQKPGKAPKLLIYAASSLQSGVPSRFSGSGSGTDFTLTISSLQPEDFATYYCQQGNSFPYTFGQGTNLEIK |  |  |  |  |  |  |  |  |  | 0.0239 | 1.57 | 0.00968 | 0.358 |
| fp.004 (antibody, V domains shown) VH: VQLVESGGGVVQPGTSLRLSCVASGFTFSNYAMHWVRQAPGKGLEWVAIISFDTRNTASAASVKGRFNISRDNSKNSLYLQMNSLRPEDTGVYYCARDLFLSDYDSRGYDPITGGFDCWGQGTLVTVSS VL: EIVMTQSPAALSVSPGEGATLSCRASQSVGSRLAWYQQKLGRPPRLLIYGASTRATGIPARFSGSGSGTEFTLTISSLQSEDFAVYYCQQYNDWPLLTFGGGTKVKIK | 0.0222 | 0.03 | 0.0386 | 0.0343 | 0.0272 | 0.0352 | 0.0267 | 0.0202 |  |  |  |  |  |
